Measured values from the supplement of paper PMC9112550, “Optimization of the antimicrobial peptide Bac7 by deep mutational scanning” (BMC Biology, 2022).
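Note: peptides expressed intracellularly from a pBAD plasmid library in pooled LB shake-flask culture, induced with 0.3% L-arabinose, DNA abundance read by NGS, three biological replicates, DESeq2 with apeglm shrinkage.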

What follows are sequences tested on Escherichia coli TOP10 (assay: shrunken log2 fold change of peptide-encoding DNA abundance (4.5 h post-induction vs induction); higher = less antimicrobial activity (less host growth inhibition)). Conditions: time post-induction: 4.5 h; library: site-saturation at positions 5, 18, 19, 20.
With RRIRARPPRLPRPRPRPHVMPRP the “shrunken log2 fold change” value was -0.0593. RRIRRRPPRLPRPRPRPSRYPRP was tested, and the “shrunken log2 fold change” value was 1.35. With RRIRQRPPRLPRPRPRPQASPRP the “shrunken log2 fold change” value was 0.0433. For RRIRARPPRLPRPRPRPTRTPRP, the “shrunken log2 fold change” value was 0.653. With RRIRRRPPRLPRPRPRPHYSPRP the “shrunken log2 fold change” value was -0.538. In the case of RRIRMRPPRLPRPRPRPRRTPRP, the “shrunken log2 fold change” value is reported as 1.76. With RRIRSRPPRLPRPRPRPNEPPRP the “shrunken log2 fold change” value was -0.0883. In the case of RRIRGRPPRLPRPRPRPNHLPRP, the “shrunken log2 fold change” value is reported as -0.226. For RRIRQRPPRLPRPRPRPMLAPRP, the “shrunken log2 fold change” value was 0.0967. In the case of RRIRCRPPRLPRPRPRPVSNPRP, the “shrunken log2 fold change” value is reported as 0.0201. For RRIRRRPPRLPRPRPRPHRTPRP, the “shrunken log2 fold change” value was 0.102. For RRIRERPPRLPRPRPRPAPDPRP, the “shrunken log2 fold change” value was 0.26. With RRIRPRPPRLPRPRPRPVEGPRP the “shrunken log2 fold change” value was 0.0448. For RRIRKRPPRLPRPRPRPFSAPRP, the “shrunken log2 fold change” value was -0.12. With RRIRSRPPRLPRPRPRPHVDPRP the “shrunken log2 fold change” value was -0.0165. For RRIRGRPPRLPRPRPRPHHEPRP, the “shrunken log2 fold change” value was 0.325. In the case of RRIRPRPPRLPRPRPRPPARPRP, the “shrunken log2 fold change” value is reported as 0.748. In the case of RRIRSRPPRLPRPRPRPKSKPRP, the “shrunken log2 fold change” value is reported as -0.0869. In the case of RRIRKRPPRLPRPRPRPTQWPRP, the “shrunken log2 fold change” value is reported as 0.622. With RRIRSRPPRLPRPRPRPCHLPRP the “shrunken log2 fold change” value was -0.0433. For RRIRFRPPRLPRPRPRPSTRPRP, the “shrunken log2 fold change” value was -0.013. In the case of RRIRMRPPRLPRPRPRPCKWPRP, the “shrunken log2 fold change” value is reported as 0.0169. In the case of RRIRNRPPRLPRPRPRPHSYPRP, the “shrunken log2 fold change” value is reported as 0.132. In the case of RRIRYRPPRLPRPRPRPRSVPRP, the “shrunken log2 fold change” value is reported as -0.0717. With RRIRERPPRLPRPRPRPFPTPRP the “shrunken log2 fold change” value was -0.573. For RRIRVRPPRLPRPRPRPCHKPRP, the “shrunken log2 fold change” value was -0.203. In the case of RRIRMRPPRLPRPRPRPGHQPRP, the “shrunken log2 fold change” value is reported as 0.568. RRIRVRPPRLPRPRPRPFCKPRP was tested, and the “shrunken log2 fold change” value was -0.144. For RRIRGRPPRLPRPRPRPCIMPRP, the “shrunken log2 fold change” value was 0.177. RRIRSRPPRLPRPRPRPGKAPRP was tested, and the “shrunken log2 fold change” value was 0.188. In the case of RRIRARPPRLPRPRPRPQHPPRP, the “shrunken log2 fold change” value is reported as 0.29. In the case of RRIRDRPPRLPRPRPRPTVHPRP, the “shrunken log2 fold change” value is reported as 0.231. For RRIRSRPPRLPRPRPRPGPYPRP, the “shrunken log2 fold change” value was -0.325. With RRIRQRPPRLPRPRPRPPRQPRP the “shrunken log2 fold change” value was 0.101. RRIRVRPPRLPRPRPRPNKIPRP was tested, and the “shrunken log2 fold change” value was -0.295. RRIRMRPPRLPRPRPRPVPTPRP was tested, and the “shrunken log2 fold change” value was 0.5. With RRIRGRPPRLPRPRPRPCSMPRP the “shrunken log2 fold change” value was -0.0323. RRIRIRPPRLPRPRPRPQHVPRP was tested, and the “shrunken log2 fold change” value was -0.211. In the case of RRIRNRPPRLPRPRPRPHQRPRP, the “shrunken log2 fold change” value is reported as 0.244. For RRIRRRPPRLPRPRPRPHISPRP, the “shrunken log2 fold change” value was -0.0794. For RRIRIRPPRLPRPRPRPDTHPRP, the “shrunken log2 fold change” value was -1.12. With RRIRVRPPRLPRPRPRPWINPRP the “shrunken log2 fold change” value was -0.565. With RRIRTRPPRLPRPRPRPAHEPRP the “shrunken log2 fold change” value was 0.197. For RRIRYRPPRLPRPRPRPRWFPRP, the “shrunken log2 fold change” value was -0.0532. RRIRARPPRLPRPRPRPHWHPRP was tested, and the “shrunken log2 fold change” value was -0.0354. With RRIRWRPPRLPRPRPRPAWWPRP the “shrunken log2 fold change” value was 0.691. In the case of RRIRMRPPRLPRPRPRPAEPPRP, the “shrunken log2 fold change” value is reported as 0.449. In the case of RRIRDRPPRLPRPRPRPSMWPRP, the “shrunken log2 fold change” value is reported as -0.0184. With RRIRWRPPRLPRPRPRPIIGPRP the “shrunken log2 fold change” value was 0.0626. RRIRLRPPRLPRPRPRPLNTPRP was tested, and the “shrunken log2 fold change” value was -0.454. For RRIRTRPPRLPRPRPRPSCRPRP, the “shrunken log2 fold change” value was -0.219. With RRIRPRPPRLPRPRPRPCHLPRP the “shrunken log2 fold change” value was -0.148. With RRIRKRPPRLPRPRPRPIDWPRP the “shrunken log2 fold change” value was 0.29. For RRIRIRPPRLPRPRPRPIYQPRP, the “shrunken log2 fold change” value was -0.00516. With RRIRYRPPRLPRPRPRPQVIPRP the “shrunken log2 fold change” value was -0.0134. RRIRLRPPRLPRPRPRPPMIPRP was tested, and the “shrunken log2 fold change” value was -0.0218. With RRIRFRPPRLPRPRPRPQGIPRP the “shrunken log2 fold change” value was 0.0254. With RRIRIRPPRLPRPRPRPYLTPRP the “shrunken log2 fold change” value was -1.45. RRIRQRPPRLPRPRPRPSSKPRP was tested, and the “shrunken log2 fold change” value was -0.623. For RRIRLRPPRLPRPRPRPTYIPRP, the “shrunken log2 fold change” value was -0.304. RRIRTRPPRLPRPRPRPTSTPRP was tested, and the “shrunken log2 fold change” value was -0.0605. In the case of RRIRWRPPRLPRPRPRPFIWPRP, the “shrunken log2 fold change” value is reported as 0.205. For RRIRSRPPRLPRPRPRPKPRPRP, the “shrunken log2 fold change” value was 0.594. With RRIRSRPPRLPRPRPRPNIVPRP the “shrunken log2 fold change” value was 0.238. RRIRIRPPRLPRPRPRPEMGPRP was tested, and the “shrunken log2 fold change” value was -0.105. With RRIRNRPPRLPRPRPRPPHQPRP the “shrunken log2 fold change” value was 0.0134. RRIRKRPPRLPRPRPRPGVEPRP was tested, and the “shrunken log2 fold change” value was 1.09. In the case of RRIRVRPPRLPRPRPRPPWSPRP, the “shrunken log2 fold change” value is reported as 0.161. For RRIRDRPPRLPRPRPRPYHSPRP, the “shrunken log2 fold change” value was -0.198. RRIRRRPPRLPRPRPRPEHNPRP was tested, and the “shrunken log2 fold change” value was 0.183. In the case of RRIRSRPPRLPRPRPRPVNTPRP, the “shrunken log2 fold change” value is reported as -0.691. With RRIRTRPPRLPRPRPRPLFNPRP the “shrunken log2 fold change” value was -0.692. With RRIRVRPPRLPRPRPRPNSGPRP the “shrunken log2 fold change” value was -0.496. With RRIRNRPPRLPRPRPRPMNMPRP the “shrunken log2 fold change” value was -0.356. RRIRDRPPRLPRPRPRPWTSPRP was tested, and the “shrunken log2 fold change” value was 0.21. With RRIRVRPPRLPRPRPRPQMEPRP the “shrunken log2 fold change” value was -0.0589. In the case of RRIRMRPPRLPRPRPRPNGEPRP, the “shrunken log2 fold change” value is reported as 0.278. For RRIRIRPPRLPRPRPRPIENPRP, the “shrunken log2 fold change” value was -0.223. In the case of RRIRGRPPRLPRPRPRPPGAPRP, the “shrunken log2 fold change” value is reported as 1.51. RRIRDRPPRLPRPRPRPYPRPRP was tested, and the “shrunken log2 fold change” value was 0.0039. RRIRARPPRLPRPRPRPFHMPRP was tested, and the “shrunken log2 fold change” value was -1.05. RRIRNRPPRLPRPRPRPDAMPRP was tested, and the “shrunken log2 fold change” value was -0.0496. In the case of RRIRARPPRLPRPRPRPRTMPRP, the “shrunken log2 fold change” value is reported as 0.403. In the case of RRIRIRPPRLPRPRPRPDLDPRP, the “shrunken log2 fold change” value is reported as -3.99e-05. With RRIRDRPPRLPRPRPRPWFNPRP the “shrunken log2 fold change” value was -0.161. In the case of RRIRMRPPRLPRPRPRPSIWPRP, the “shrunken log2 fold change” value is reported as -0.255. For RRIRWRPPRLPRPRPRPDIPPRP, the “shrunken log2 fold change” value was -0.367. RRIRQRPPRLPRPRPRPRNGPRP was tested, and the “shrunken log2 fold change” value was -0.0342. For RRIRLRPPRLPRPRPRPRCWPRP, the “shrunken log2 fold change” value was 0.371. In the case of RRIRWRPPRLPRPRPRPPFKPRP, the “shrunken log2 fold change” value is reported as 0.331. In the case of RRIRNRPPRLPRPRPRPVGEPRP, the “shrunken log2 fold change” value is reported as 0.112.
